How the values were obtained:
[1] = tested on: CD19-expressing tumors (Raji xenograft); assay: Biodistribution by tissue ELISA in CD19-expressing xenograft tumor model; assay type: in vivo, NOD-SCID mice; conditions: day 7 after i.v. injection
Protocol: For biodistribution analysis of the stabilized (scFv α CD19)-Fc-MBM-1×2 DOTA bundles in xenograft mouse model, the procedure set forth in Example 32 was used with some modifications.
Briefly, the mice were injected subcutaneously with 1×10^7 B-cell lymphoma Raji cells per mouse 2 to 3 weeks before the treatment. The mice were grouped into three mice per group, and were injected intravenously with about 200 μL of 6.65 μM labeled molecule.
Biodistribution of NOD-SCID mice were analyzed by tissue ELISA at 7 days after the administration of the stabilized 2-chain (scFv α CD19)-Fc-MBM-1×2 DOTA bundles and the anti-CD19 antibody. Briefly, the animals were sacrificed at day 7 after injection. Blood was hemospasia from the heart, and tissue samples from 11 organs were collected. Tissues samples were homogenized using homogenizer and analyzed further for measuring the concentration of the injected molecules by ELISA.

[2] = target: T1, human CD19 on human B lymphoma cell lines Ramos (Homo sapiens, UniProt P15391); assay: Cell staining (FACS) binding to CD19-expressing Ramos cells; assay type: cell-based
T1 construct: two molecular constructs containing MBM-1 and MBM-3 on CD19-expressing Ramos cells; endogenous in cells; host or cells: Ramos (human B lymphoma cell line)
T1 sequence (P15391 20-556): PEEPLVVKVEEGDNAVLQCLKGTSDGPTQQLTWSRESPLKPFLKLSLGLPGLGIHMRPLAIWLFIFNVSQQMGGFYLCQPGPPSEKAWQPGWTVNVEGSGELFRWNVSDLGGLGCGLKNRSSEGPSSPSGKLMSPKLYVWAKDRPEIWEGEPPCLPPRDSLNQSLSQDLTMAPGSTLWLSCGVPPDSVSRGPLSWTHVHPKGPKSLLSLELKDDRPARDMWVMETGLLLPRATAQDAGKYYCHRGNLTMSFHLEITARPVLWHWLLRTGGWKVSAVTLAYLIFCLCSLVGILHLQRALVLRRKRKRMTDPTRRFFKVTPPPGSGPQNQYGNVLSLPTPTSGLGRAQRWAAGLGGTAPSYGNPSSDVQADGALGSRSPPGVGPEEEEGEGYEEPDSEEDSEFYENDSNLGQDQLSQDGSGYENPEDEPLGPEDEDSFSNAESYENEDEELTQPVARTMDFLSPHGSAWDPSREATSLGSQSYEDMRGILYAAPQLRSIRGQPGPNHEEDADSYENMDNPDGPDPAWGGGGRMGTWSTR
Protocol: (§1) Two stabilized molecular constructs, (scFv α CD19)-Fc-MBM-1×2 DOTA bundles and (scFv α CD19)-Fc-MBM-3×2 DOTA bundles, were analyzed for their ability to bind to human CD19 on human B lymphoma cell line Raji. The assay was performed by incubating 1×10^6 CD19-expressing Raji cells with 0.001 μg/ml of each construct in PBS, 1% BSA on ice for 30 minutes, using anti-CD19 antibody (RB4v1.2), (scFv α CD19)-Fc-MBM-1×2 DOTA bundles and (scFv α CD19)-Fc-MBM-3×2 DOTA bundles as positive controls. The anti-HER2 antibody (trastuzumab) was used as a negative control. The staining of cells was analyzed by FACS (FACSCanto II; BD Biosciences) using FITC-conjugated goat anti-human IgG.Fc (diluted 1:200 in PBS/BSA) (Caltag, Buckingham, UK) at 4° C. for 20 minutes in the dark.
These molecular constructs were also analyzed for their ability to bind to human CD19 on human B lymphoma cell lines Ramos. The assay was performed using the protocol similar to the one used in cell binding assay with Raji cells. The staining of Ramos cells was analyzed by FACS (FACSCanto II; BD Biosciences) using FITC-conjugated goat anti-human IgG.Fc, where anti-CD19 IgG is used as a positive control. The anti-HER2 antibody (trastuzumab) was used as a negative control. […]

[3] = Examination of retro-Michael addition product, Western blot; assay type: in vitro ADME; conditions: 37° C., 30 days, compared with stock at 4° C.
Protocol: A further confirmation of the stability of the 2-chain (scFv α CD19)-Fc-MBM-1×2 DOTA bundles, the stabilized molecular construct was incubated with glutathione or HSA and then analyzed using Western blot.
For the western blot analysis of the stabilized samples, briefly, the samples were separated on 8% SDS-PAGE gels and transferred to a poly(vinylidene fluoride) (PVDF) membrane (Millipore). The membrane blots were blocked in PBS containing 5% BSA and 0.05% Tween 20 for 1 hour at room temperature. After washing 3 times with phosphate buffered saline tween-20 (PBST) containing PBS and 0.05% Tween-20, the blots were incubated with goat anti-human IgG.Fc antibody conjugated with horseradish peroxidase (Millipore). Then the membranes were washed 3 times with PBST, and immunoreacted bands were detected using ECL™ western blotting detection reagents (Millipore) and exposed on Fujifilm (Tokyo, Japan).

[4] = Stability with glutathione or human serum albumin, SDS-PAGE; assay type: in vitro ADME; conditions: 37° C., 30 days
Protocol: To evaluate the stability of the stabilized 2-chain (scFv α CD19)-Fc-MBM-1×2 DOTA bundles, the molecular constructs were placed in Tris buffer (100 mM Tris buffer at pH 7.3, 50 mM Bis-Tris buffer, and 290 mM NaCl) with glutathione or human serum albumin, and then incubated at 37° C. for 30 days.

[5] = tested on: CD19-expressing tumors (Raji xenograft); assay: IVIS imaging of targeting to CD19-expressing xenograft tumor; assay type: in vivo, NOD-SCID mice
Source text: In this Example, in vivo imaging system (IVIS) was used to investigate the targeting effect of the stabilized 2-chain (scFv α CD19)-Fc-MBM-1×2 DOTA bundles to CD19-expressing tumors in mouse xenograft model. Prior to IVIS imaging, a Dylight 680 Antibody Labeling Kit (Thermo Scientific) was used to conjugate the stabilized 2-chain (scFv α CD19)-Fc-MBM-1×2 DOTA bundles from Example 19 and the anti-CD19 antibody (RB4v1.2), according to the manufacturer's instructions.
8 to 10-week-old NOD-SCID (NOD.CB17-Prkdc^scid/JNarl) were purchased from Laboratory Animal Facility of Institute of Cellular and Organismic Biology, Academia Sinica, Taipei, Taiwan. The mice were injected intraperitoneally with 1×10^7 B-cell lymphoma Raji cells per mouse 2 weeks before the treatment. The mice were grouped into three mice per group, and were injected intravenously with about 200 μL of 6.65 μM labeled molecule. At various time points, mice were anaesthetized with isoflurane in O2 and placed in the IVIS Spectrum In Vivo Imaging System (PerkinElmer) with a supine position. […] Images were captured at indicated time points using IVIS Spectrum imager and analyzed with Living Image software.
Fluorescent images from NOD-SCID mice were captured and analyzed at 0 hour, 24 hours, 48 hours, and 72 hours after the administration of DyLight 680-conjugated proteins. […]

[6] = Half-life in BALB/c mice after i.v. administration (serum ELISA); assay type: in vivo; conditions: about 200 μL of 3.33 μM protein
Protocol: The measurement of half-lives of the stabilized 2-chain (scFv α CD19)-Fc-MBM-1×2 DOTA bundles was carried out in mice after i.v. administration. The (scFv α CD19)-Fc-MBM-1×2 DOTA bundles in the serum sample was observed using ELISA. 8 to 10-week-old BALB/c mice were purchased from BioLasco, Taipei, Taiwan. Mice were grouped into three mice per group, and were injected intravenously with about 200 μL of 3.33 μM protein.

[7] = target: T2, human CD19 on human B lymphoma cell line Raji (Homo sapiens, UniProt P15391); assay: Cell staining (FACS) binding to CD19-expressing Raji cells; assay type: cell-based; conditions: 0.001 μg/ml, on ice 30 minutes
T2 construct: incubating 1×10^6 CD19-expressing Raji cells with 0.001 μg/ml of each construct; endogenous in cells; host or cells: Raji (human B lymphoma cell line)
T2 sequence (P15391 20-556): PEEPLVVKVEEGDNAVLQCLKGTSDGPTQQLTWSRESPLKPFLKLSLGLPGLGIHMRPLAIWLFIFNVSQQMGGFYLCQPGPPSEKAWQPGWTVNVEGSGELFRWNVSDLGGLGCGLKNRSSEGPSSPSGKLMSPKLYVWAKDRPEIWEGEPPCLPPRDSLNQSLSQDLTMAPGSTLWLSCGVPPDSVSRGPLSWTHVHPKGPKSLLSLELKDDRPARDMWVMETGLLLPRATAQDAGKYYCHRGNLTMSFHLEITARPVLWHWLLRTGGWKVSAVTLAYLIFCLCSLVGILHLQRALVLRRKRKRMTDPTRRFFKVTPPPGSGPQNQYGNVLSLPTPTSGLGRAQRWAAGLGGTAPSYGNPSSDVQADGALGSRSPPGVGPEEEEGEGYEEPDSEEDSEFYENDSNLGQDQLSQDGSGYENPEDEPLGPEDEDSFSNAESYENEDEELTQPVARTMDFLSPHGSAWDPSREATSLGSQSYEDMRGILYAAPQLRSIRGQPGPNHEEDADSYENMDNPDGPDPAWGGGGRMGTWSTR
Protocol: as §1

B1: stabilized 2-chain (scFv α CD19)-Fc-MBM-1×2 DOTA bundles: 2-chain anti-CD19 scFv-Fc fusion with MBM-1 (ACPGHA), two Mal-Peptide 2-DOTA bundles conjugated, maleimide ring opened (conjugate)
chain: EIVLTQSPAIMSASPGERVTMTCSASSGVNYMHWYQQKPGTSPRRWIYDTSKLASGVPARFSGSGSGTDYSLTISSMEPEDAATYYCHQRGSYTFGGGTKLEIKRGSTSGSGKPGSGEGSTKGQVQLVQPGAEVVKPGASVKLSCKTSGYTFTSNWMHWVKQAPGQGLEWIGEIDPSDSYTNYNQNFQGKAKLTVDKSTSTAYMEVSSLRSDDTAVYYCARGSNPYYYAMDYWGQGTSVTVSSGGGASDKTHTCPPCPAPELLGGPSVFLFPPKPKDTLMISRTPEVTCVVVDVSHEDPEVKFNWYVDGVEVHNAKTKPREEQYNSTYRVVSVLTVLHQDWLNGKDYKCKVSNKALPAPIEKTISKAKGQPREPQVYTLPPSRDELTRNQVSLTCLVKGFYPSDIAVEWESNGQPENNYKTTPPVLDSDGSFFLYSKLTVDKSRWQQGNVFSCSVMHEALHNHYTQKSLSLSPGGGGACPGHA
[1]
  targeting of CD19-expressing tumors (tissue-to-blood ratio biodistribution): can target CD19-expressing tumors
[2]
  binding to Ramos cells (cell staining): bound to Ramos cells substantially positively
[3]
  stability while incubated with glutathione or HSA: satisfactory stability
[4]; SDS-PAGE
  stability while incubated with glutathione or human serum albumin: satisfactory stability
[4]; HSA-treated group
  intact molecular construct still in solution without retro-Michael addition product: approximately 90%
[4]; glutathione-treated group
  intact molecular construct still in solution without retro-Michael addition product: approximately 90%
[5]; 24, 48 and 72 hours after i.v. injection, DyLight 680-labeled
  penetration into tumors compared with normal organ: significantly greater
[5]; mouse xenograft model
  targeting effect to CD19-expressing tumors: satisfactory targeting effect
[6]
  half-life: ~193.5 h
[7]
  binding to Raji cells (cell staining): bound to Raji cells substantially positively

B2: (scFv α CD19)-Fc-MBM-1 fusion protein: scFv specific for human CD19 (from RB4v1.2) fused to IgG1.Fc, GGGG linker and MBM-1 ACPGHA; SEQ ID NO: 13 (protein)
chain: EIVLTQSPAIMSASPGERVTMTCSASSGVNYMHWYQQKPGTSPRRWIYDTSKLASGVPARFSGSGSGTDYSLTISSMEPEDAATYYCHQRGSYTFGGGTKLEIKRGSTSGSGKPGSGEGSTKGQVQLVQPGAEVVKPGASVKLSCKTSGYTFTSNWMHWVKQAPGQGLEWIGEIDPSDSYTNYNQNFQGKAKLTVDKSTSTAYMEVSSLRSDDTAVYYCARGSNPYYYAMDYWGQGTSVTVSSGGGASDKTHTCPPCPAPELLGGPSVFLFPPKPKDTLMISRTPEVTCVVVDVSHEDPEVKFNWYVDGVEVHNAKTKPREEQYNSTYRVVSVLTVLHQDWLNGKDYKCKVSNKALPAPIEKTISKAKGQPREPQVYTLPPSRDELTRNQVSLTCLVKGFYPSDIAVEWESNGQPENNYKTTPPVLDSDGSFFLYSKLTVDKSRWQQGNVFSCSVMHEALHNHYTQKSLSLSPGGGGACPGHA
[6]
  half-life: ~179.6 h

— patent US11926678B2, “Composite polypeptide having a metal binding motif and molecular construct comprising the same” (Immunwork Inc., priority 2020, dated 2024)
